This is an account of results in US20170355734A1 (INSERM INSTITUT NATIONAL DE LA SANT ET DE LA RECHERCHE M …, published 2017).

Read-outs that look alike come from different tables or passages of the source.

Assay [1] concerns the target T1, wild-type rat apelin receptor-EGFP (rat, UniProt Q9JHG3 1-377, EGFP is fused at the C-terminal (intracellular) end of the receptor. It is not included in the letters.).
T1 construct: Stably expressed in CHO cells; cAMP, internalization and ERK1/2 assays on whole cells; also called ApelinR-EGFP; APJ receptor; not shown: The EGFP fused to the receptor's C-terminus, and any linker to it
T1 sequence: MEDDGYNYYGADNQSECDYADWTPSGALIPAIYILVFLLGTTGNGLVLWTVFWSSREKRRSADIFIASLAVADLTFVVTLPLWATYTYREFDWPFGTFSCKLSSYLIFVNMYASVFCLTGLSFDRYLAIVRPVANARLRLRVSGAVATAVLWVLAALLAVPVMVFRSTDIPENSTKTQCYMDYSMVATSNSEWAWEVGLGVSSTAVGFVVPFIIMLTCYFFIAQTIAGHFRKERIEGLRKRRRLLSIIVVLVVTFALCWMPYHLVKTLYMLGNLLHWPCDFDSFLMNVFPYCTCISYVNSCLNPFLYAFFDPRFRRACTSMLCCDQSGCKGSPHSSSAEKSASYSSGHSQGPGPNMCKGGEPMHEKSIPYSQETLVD
Kind of assay: competitive radioligand binding vs [125I]-pE13F, membranes of CHO cells expressing rat apelin receptor-EGFP. The protocol:
(§1) Crude membrane preparation from CHO stably expressing the wild-type rat apelin receptor-EGFP, were prepared as previously described (39). […] The reaction was stopped by adding ice-cold binding buffer and filtered through glass microfiber filters (Whatman GF/C filters). Radioactivity was counted in Wizard 1470 Wallac gamma counter (Perkin Elmer, Turku, Finland).

Assay [2] concerns the target T1, wild-type rat apelin receptor-EGFP. The assay is described as above. The protocol: as §1
This is another data set of the same source.

Assay [3] has the same target. Kind of assay: cell-based or functional assay.
Assay [4] has the same target. Put plainly: cell-based or functional assay. The source holds these as a separate data set.
The target is the same in assay [5]. Kind of assay: cell-based or functional assay. The source holds these as a separate data set.
For assay [6] the target is unchanged. Kind of assay: cell-based or functional assay. The source holds these as a separate data set.
For assay [7] the target is unchanged. Kind of assay: competitive radioligand binding vs [125I]-pE13F, membranes of CHO cells expressing rat apelin receptor-EGFP. The protocol:
as §1
This is another data set of the same source.

By Ki is commonly meant a dissociation constant, usually derived from enzyme kinetics or from competition with a known ligand. Low values mean tighter binding, high ones weaker binding. Broadly, the IC50 is the concentration at which inhibition is half-maximal. The low end stands for inhibition by little substance, the high end for a need for much substance.

B1: K17F (apelin-17) (peptide)
peptide: H-KFRRQRPRLSHKGPMPF-OH
Consider B1, for which the affinity in assay [1], expressed as Ki, was 260 pM. The same molecule showed a Ki in assay [2] of 60 pM. In assay [3], the “ERK1/2 phosphorylation EC50” value was found to be 4080 pM, the “Internalization EC50” value amounted to 260 pM and the “cAMP production IC50” value amounted to 300 pM. In addition, in assay [4], the “ERK1/2 phosphorylation EC50” value was found to be 4080 pM, the “Inhibition of FSK-induced cAMP production IC50” value was found to be 300 pM and the “Internalization EC50” value stood at 260 pM. Moreover, in assay [5], the “IC50 cAMP inhibition” value was 90 pM. The “cAMP production IC50” value in assay [6] was 300 pM. In addition, in assay [7], the IC50 turned out to be 290 pM and the affinity, expressed as Ki, was 49 pM.
